{
  "source": "patent US10494417B2",
  "about": "“Peptide inhibitors of BCR-ABL oligomerization” (University of Utah Research Foundation, priority 2014, dated 2019)",
  "key": {"[1]": {"system": "Ba/F3 cells expressing BCR-ABL1T315I", "experiment": "Proliferation of transfected Ba/F3 BCR-ABL1 T315I cells (MTS assay)", "type": "cell-based, mouse", "conditions": "CCmut3 vs EV; for proliferation, in words: MTS assay at 72 and 96 h", "procedure": "(§1) Stable recombinant Ba/F3 cells transduced with wild type p210 BCR-ABL1 (Daley, G. Q., et al. (1991) Proc. Natl. Acad. Sci. U.S.A. 88, 11335-11338), the kinase domain mutants p210^T315I p210^[…], or the compound mutant p210^E255V/T315I were as previously described (La Rosee, P., et al. (2002) Cancer Res. 62, 7149-7153; O'Hare, T., et al. (2004) Blood 104, 2532-2539). These cells were cultured in RPMI with 10% FBS, 1% penicillin, streptomycin, glutamine, and 0.1% gentamycin (RPMI1640). Additionally 0.1% MycoZap™ (Lonza Bio, Basel, Switzerland) was added to prevent mycoplasma contamination. The non-transduced parental Ba/F3 cell line was grown in RPMI1640 supplemented with 20% WEHI-3B conditioned medium as a source of murine IL-3 (Dexter, T. M., et al. (1980) J. Exp. Med. 152, 1036-1047). Ba/F3 cells were transfected with plasmid DNA using the Amaxa nucleofection system (Lonza Bio), following the manufacturer's instructions. Cells were sorted on a BD FACSAria cytometer (BD Biosciences, San Jose, Calif.) for double-positive cells expressing mCherry and GFP then returned to RPMI1640 for subsequent experiments.\n(§2) Cell proliferation was assessed using the CellTiter 96® AQueous One Solution Cell Proliferation Assay (MTS assay, Promega) according to manufacturer instructions. Briefly, 5,000 viable cells were added to a single well in 96-well plate in 100 μL RPMI1640. Three independent samples were seeded in duplicate for each time point. […] In some experiments, cell proliferation was assessed using a Neubauer chamber and trypan blue dye exclusion.\n(§3) Stable Ba/F3 cells transduced with native (p210) BCR-ABL1, the kinase domain mutants BCR-ABL1T315I, BCR-ABL1E255V, or the compound mutant BCR-ABL1E255V/T315I were cultured. […]\n(§4) Cell proliferation was assessed using a […] viability assay (MTS assay) utilizing CellTiter 96® AQueous One Solution Cell Proliferation Assay (Promega) according to manufacturer instructions. […] Cell growth was assessed by MTS assay at 72 and 96 h. […] In patient sample experiments, cell proliferation was assessed by trypan blue exclusion."}, "parental Ba/F3 cells": {"system": "parental Ba/F3 cells", "experiment": "Proliferation of transfected parental Ba/F3 cells (MTS assay)", "type": "cell-based, mouse", "conditions": "for proliferation of parental Ba/F3 cells: MTS assay at 72 and 96 h, CCmut3 vs EV", "procedure": "as §1, §2, §3, §4"}, "mCherry-tagged Bcr-Abl": {"target": "T1, mCherry-tagged Bcr-Abl (Homo sapiens, UniProt P00519+P11274)", "T1 construct": "expressed in transfected cells; host or cells: Cos-7", "T1 sequence (P11274 1-72 limits assumed)": "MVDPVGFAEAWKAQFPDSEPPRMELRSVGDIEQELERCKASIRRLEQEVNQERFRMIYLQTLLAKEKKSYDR", "experiment": "Colocalization analysis in Cos-7 cells", "type": "cell-based", "conditions": "EGFP-tagged CC^mut3 co-transfected with mCherry-tagged Bcr-Abl", "procedure": "Next, the ability of CC^mut3 to bind to BCR-ABL in live cells was analyzed (FIG. 8B). Colocalization analysis was performed by co-transfecting mCherry-tagged Bcr-Abl and EGFP-tagged CC^mut3 into Cos-7 cells."}, "[2]": {"system": "CD34+ cells from newly diagnosed CML patients", "experiment": "Colony forming assay of CD34+ cells from newly diagnosed CML patients", "type": "cell-based, human", "conditions": "for colony formation, in words: day 14 CFU-GM, lentiviral CCmut3 or 2.5 μM imatinib vs EV", "procedure": "Primary cells were seeded in Methocult H4230 (Stem Cell Technologies) as described previously (Fleischman, A. G., et al. (2011). Blood 118, 6392-6398). Briefly, lentivirus-infected (GFP^+) cells were isolated by FACS and resuspended in RPMI1640. Cells were plated in Methocult H4230 at 1,000 cells/mL supplemented with 1× StemSpan CC100 cytokine mix (StemCell Technologies) with or without TKI as indicated in each experiment. Plates were incubated at 37° C. in a 5% CO2 humidified incubator for 14 days. Colony forming units of granulocyte-macrophage (CFU-GM) were counted on day 14 using an inverted microscope.\nFollowing selection of transfected cells by cell sorting, methylcellulose colony assays were performed by plating in 0.9% methylcellulose (Stem Cell Technologies; M3234 for Ba/F3 BCR-ABL1 native and mutant lines; M3434 for Ba/F3 parental cells; H4230 for CML patient samples). mCherry-positive Ba/F3 cells (1.1×10^3 cells/plate) or GFP-positive primary CML CD34+ cells (1×10^3 cells/plate) were seeded per dish in duplicate. In the case of CML patient samples, cells were plated in the presence of 1× StemSpan CC100 cytokine cocktail (StemCell Technologies). All cells were plated with or without the indicated TKI in three or more independent experiments. Plates were incubated at 37° C. in a 5% CO2 humidified incubator. Colonies were counted 7-14 days later in an area of 50 μm2 per dish using an inverted microscope."}},
  "note": "“Also recorded” adds a separate entry of the source.",
  "data": [
    {"molecule": "CCmut3: modified Bcr-Abl coiled-coil domain (residues 1-72) with mutations C38A, K39E, S41R, L45D, E48R, Q60E (protein) MVDPVGFAEAWKAQFPDSEPPRMELRSVGDIEQELERAEARIRRDEQRVNQERFRMIYLETLLAKEKKSYDR", "values": [
      {"measurement": "reduction of proliferation", "setting": "[1]; 96 h, MTS assay", "value": "approximately 3 fold"},
      {"measurement": "proliferation, in words", "setting": "[1]", "value": "significant reduction of proliferative capacity; also recorded: lesser, yet significant difference was noted at the 72 h time point"},
      {"measurement": "proliferation, in words", "setting": "[1]; listed as CC^mut3", "value": "significant reduction"},
      {"measurement": "proliferation of parental Ba/F3 cells", "setting": "parental Ba/F3 cells", "value": "not affected; also recorded: No difference"},
      {"measurement": "proliferation of parental Ba/F3 cells", "setting": "parental Ba/F3 cells; listed as CC^mut3", "value": "not affected; also recorded: No difference"},
      {"measurement": "toxicity in BCR-ABL1-negative cells", "setting": "parental Ba/F3 cells; parental Ba/F3 cells, FIGS. 38a, c, e (proliferation, apoptosis, colony formation)", "value": "no measurable toxicity"},
      {"measurement": "intracellular colocalization with BCR-ABL (Costes' coefficient)", "setting": "mCherry-tagged Bcr-Abl", "value": "intracellular colocalization"},
      {"measurement": "colony formation, in words", "setting": "[2]", "value": "equally effective in reducing colony number"},
      {"measurement": "colony formation, in words", "setting": "[2]; listed as CC^mut3", "value": "reduced to similar degree"},
      {"measurement": "inhibition of colony formation", "setting": "[2]; four newly diagnosed patient samples, day 14, normalized to EV", "value": "~60", "unit": "%"}
    ]}
  ]
}
